Reference: patent publication US20230303695A1 (SHANGHAI XBH BIOTECHNOLOGY, published 2023)
Substitutions are numbered along the chain they refer to.

B1: L2-10 (antibody, V domains shown)
VH: EVQLVESGGGLEQPGGSLRLSCAASGFTFRDYAMTWVRQAPGKGLEWVSSISGSGGSTYYADSVKGRFTISRDNSKNTLYLQMNSLRAEDTAIYYCARGEYSSGWPSWFDPWGQGTLVTVSS
VL: DIQMTQSPSSLSASVGDRVTITCRASRTVGTFLNWYQQKPGKAPKALILHTSILEGGVPSRFSGSGSGTDFTLTISSLQPEDIATYYCQQSHDVPRTFGQGTKVEIK
notes: also called L2-10-IgG1
B2: L2-01 (antibody, V domains shown)
VH: B1 VH with A24G, S57N
VL: EIVLTQSPSSLSASVGDRVTISCRASRTVGTFLNWYQQRPGKPPQALILGVSILEGGVSSRFSGAGSGTEFSLTISSLQPEDIGTYYCQQSHDVPRTFGQGTKVDLR
notes: Expressed in CHO cells; also called L2 antibody; L2-01-IgG1
B3: KLRD1 alone on CT26 cells (receptor, UniProt Q13241 1-179, looked up)
chain: MAVFKTTLWRLISGTLGIICLSLMSTLGILLKNSFTKLSIEPAFTPGPNIELQKDSDCCSCQEKWVGYRCNCYFISSEQKTWNESRHLCASQKSSLLQLQNTDELDFMSSSQQFYWIGLSYSEEHTAWLWENGSALSQYLFPSFETFNTKNCIAYNPNGNALDESCEDKNRYICKQQLI
notes: whole, on cells; also called KLRD1 monomer
B4: L1-20 (antibody, IgG1, V domains shown)
VH: QVQLVESGGGVVQPGRSLRLSCAASGFTFSTYGMHWVRQAPGKGLEWVAVIWDDGSYKYYGDSVKGRFTISRDNSKNTLYLQMNSLRAEDTAVYYCARDGSGWGYAFDIWGQGTLVTVSS
VL: DIQLTQSPSSLSASVGDRVTITCQASQDIEWWLNWYQQKPGKAPKLLIYGSPNLETGVPSRFSGSGSGTDFTFTISSLQPEDIATYYCQQYDSFPYTFGQGTKVEIK
notes: also called L1-20-IgG1
B5: L1-01 (antibody, V domains shown)
VH: B4 VH with L115M
VL: DIQLTQSPSSLSASVGDRVTITCQASQDISEYLNWYQHKPGKAPNPLVFDAANLETGVPPRFSATGSGTDFSLTITSLQPEDFATYYCQQYDSFPYTFGQGTRLDIK
notes: Expressed in CHO cells; also called L1 antibody; L1-01-IgG1
B6: KLRC1 alone on CT26 cells (receptor)
chain: not shown
notes: whole, on cells; also called KLRC1 monomer

Key:
[1] = molecular target: T1, cynomolgus monkey IGSF8 expressed on CT26 cells (cynomolgus monkey, UniProt Q969P0 28-613 (human entry)); experiment: FACS on CT26 cells expressing IGSF8
T1 sequence: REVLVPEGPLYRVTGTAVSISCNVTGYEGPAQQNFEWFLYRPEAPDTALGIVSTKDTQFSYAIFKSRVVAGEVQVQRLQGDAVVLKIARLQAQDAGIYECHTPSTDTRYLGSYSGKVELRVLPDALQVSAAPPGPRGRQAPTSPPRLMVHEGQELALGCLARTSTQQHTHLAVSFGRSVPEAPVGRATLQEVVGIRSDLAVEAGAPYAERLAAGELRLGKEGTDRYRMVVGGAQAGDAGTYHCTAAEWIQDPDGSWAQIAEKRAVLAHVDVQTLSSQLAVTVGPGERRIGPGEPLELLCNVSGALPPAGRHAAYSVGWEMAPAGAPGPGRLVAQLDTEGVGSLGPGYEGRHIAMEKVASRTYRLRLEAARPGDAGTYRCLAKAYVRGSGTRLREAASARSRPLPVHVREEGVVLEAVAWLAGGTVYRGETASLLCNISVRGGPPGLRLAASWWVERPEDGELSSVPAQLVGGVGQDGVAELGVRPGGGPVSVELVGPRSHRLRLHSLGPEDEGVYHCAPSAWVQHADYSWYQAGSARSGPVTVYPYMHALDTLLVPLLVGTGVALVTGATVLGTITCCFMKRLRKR
Experimental: (§1) To test cross reactivity of the L1, and L2 antibodies, CT26 cells with forced human, cynomolgus monkey, or mouse IGSF8 expression were generated by lentiviral delivery. For antibody binding assays based on cell-expressed antigens, 100,000 cells overexpressing the antigen were washed with PBS buffer containing 2% FBS, and then incubated with 100 μL of antibodies or IgG of different concentrations for 30 minutes on ice. Cells were then washed twice with wash buffer, and incubated with 100 μL of 1:100 anti-human Fc-PE antibody for 15 minutes on ice. Cells were washed twice with wash buffer and analyzed on a FACS analyzer (CytoFlex, Beckman). The MFI was plotted vs. antibody concentration. The EC50 cell binding potenct was calculated using nonlinear regression curve fit.

[2] = molecular target: T2, human IGSF8 expressed on the cell surface (human, UniProt Q969P0 28-613); experiment: FACS on CT26 cells expressing IGSF8
T2 construct: whole, on cells; also called human IGSF8 on CT26 cells; IGSF8 on MC38 cells
T2 sequence (looked up): T1 sequence with T14A, I63V, A125V, L147M, M148T, Q167K, A187S, L554F
Experimental: as §1

[3] = molecular target: T3, mouse IGSF8 expressed on CT26 cells (mouse, UniProt Q8R366 26-611); experiment: FACS on CT26 cells expressing mouse IGSF8, anti-human Fc-PE
T3 construct: whole, on cells
T3 sequence (looked up): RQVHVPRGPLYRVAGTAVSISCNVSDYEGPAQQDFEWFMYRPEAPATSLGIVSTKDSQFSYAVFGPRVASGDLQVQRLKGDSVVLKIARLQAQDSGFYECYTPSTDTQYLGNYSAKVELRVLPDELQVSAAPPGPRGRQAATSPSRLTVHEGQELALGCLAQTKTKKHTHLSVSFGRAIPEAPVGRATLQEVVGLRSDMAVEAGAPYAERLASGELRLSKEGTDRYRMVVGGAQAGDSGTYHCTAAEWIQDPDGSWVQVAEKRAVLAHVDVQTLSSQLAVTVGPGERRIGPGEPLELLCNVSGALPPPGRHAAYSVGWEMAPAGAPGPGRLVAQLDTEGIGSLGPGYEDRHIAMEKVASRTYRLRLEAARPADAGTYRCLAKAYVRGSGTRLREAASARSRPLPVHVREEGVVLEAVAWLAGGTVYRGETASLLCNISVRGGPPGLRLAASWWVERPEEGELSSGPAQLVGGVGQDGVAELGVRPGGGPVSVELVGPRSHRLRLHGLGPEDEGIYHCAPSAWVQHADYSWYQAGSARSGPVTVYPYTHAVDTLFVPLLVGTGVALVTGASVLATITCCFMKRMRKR
Experimental: as §1

[4] = molecular target: T4, recombinant human IGSF8 extracellular domain tagged by a human Fc region (IGSF8-hFc) (human, UniProt Q969P0 28-579, biotin label in Examples 17, 18 and 28 (site not given)); experiment: SPR, Ab captured
T4 construct: also called IGSF8-Fc fusion protein; IGSF8-hFc-biotin; not shown: human Fc region
T4 sequence: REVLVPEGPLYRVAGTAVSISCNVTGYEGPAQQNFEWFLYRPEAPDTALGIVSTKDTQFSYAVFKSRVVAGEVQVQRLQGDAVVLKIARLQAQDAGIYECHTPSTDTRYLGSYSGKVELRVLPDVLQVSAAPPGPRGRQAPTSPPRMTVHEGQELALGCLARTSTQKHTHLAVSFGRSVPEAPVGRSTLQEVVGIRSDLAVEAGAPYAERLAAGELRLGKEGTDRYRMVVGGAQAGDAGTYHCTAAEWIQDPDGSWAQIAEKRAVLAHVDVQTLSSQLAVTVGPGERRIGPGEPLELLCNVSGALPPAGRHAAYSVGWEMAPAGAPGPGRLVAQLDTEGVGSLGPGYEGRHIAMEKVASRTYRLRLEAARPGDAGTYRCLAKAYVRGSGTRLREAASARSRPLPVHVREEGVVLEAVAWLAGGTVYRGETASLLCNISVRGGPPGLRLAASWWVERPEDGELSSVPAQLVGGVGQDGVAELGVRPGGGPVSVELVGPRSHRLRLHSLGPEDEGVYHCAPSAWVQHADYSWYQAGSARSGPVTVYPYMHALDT
Experimental: The binding affinities of the L1 and L2 antibodies to IGSF8 recombinant protein were determined by surface plasmon resonance (SPR). Briefly, anti-human Fab antibody was imobilized on acarboxyl-derivatized SPR chip surface, and the antibodies were captured on the resulting surface at 5 μg/ml for 30 seconds.

[5] = molecular target: T4, recombinant human IGSF8 extracellular …; experiment: FACS blocking assay: antibody titrated against biotinylated IGSF8-hFc (1 ug/mL) binding to KIR3DL2 on CT26 cells, Streptavidin-PE
Experimental: CT26 cells with forced ectopic/exogenous human KIR3DL2 expression were incubated with biotinylated IGSF8-hFc recombinant protein (1 μg/mL) in the presence of the antibodies L1-20, L2-10, and a isotype control antibody. The binding of IGSF8-hFc-biotin to the Ct26 cells was determined using Streptavidin-PE by flow cytometry analysis (FIG. 39).

[6] = molecular target: T4, recombinant human IGSF8 extracellular …; experiment: FACS, IGSF8-hFc on CT26 cells, MFI normalized to Thy1.1
Experimental: KLRC1 also contains a ITIM motif in its intracellular domain, and was known to be a inhibitory receptor of NK or CD8⁺ T cells as part of a heterodimer with KLRD1 on the cell surface. […] Specifically, 100,000 CT26 cells overexpressing the antigens (KIRs or KLRs) were washed with PBS buffer containing 2% FBS, and incubated with 100 μL IGSF8 recombinant proteins or antibodies (5 μg/mL) for 30 minutes on ice. Cells were then washed twice with wash buffer, and incubated with 100 μL of 1:100 anti-human Fc-PE antibody for 15 minutes on ice. Cells were washed twice with wash buffer and analyzed on a FACS analyzer (CytoFlex, Beckman). In these experiments, the mean fluorescence intensity (MFI) of IGSF8 binding to different CT26 cells were normalized by the expression of different KLRs on CT26 cells using an anti-thy1.1 mAb via flow cytometry.

[7] = molecular target: T3, mouse IGSF8 expressed on CT26 cells; experiment: FACS on CT26 cells expressing IGSF8
Experimental: as §1

Binder | EC50 [1] | EC50 [2] | binding result [3] | Kd [4] | koff [4] | kon [4] | IC50 (read off the curve) [5] | binding result [6] | EC50 [7]
B1 | 0.041 mg/L | 0.145 mg/L | no binding (tested: 40 ug/ml) | 0.256 nM | 3.68e-05 s⁻¹ | 144000 M⁻¹ s⁻¹ | ~0.4 mg/L | – | –
B2 | 0.212 mg/L | 0.473 mg/L | no binding (tested: 40 ug/ml) | – | – | – | – | – | –
B3 | – | – | – | – | – | – | – | no binding | –
B4 | 0.0268 mg/L | 0.0537 mg/L | – | 0.0214 nM | 7.02e-06 s⁻¹ | 329000 M⁻¹ s⁻¹ | ~0.3 mg/L | – | 0.0275 mg/L
B5 | 0.224 mg/L | 0.206 mg/L | – | – | – | – | – | – | 0.538 mg/L
B6 | – | – | – | – | – | – | – | no binding | –
